Results as given in publication PMC11429718.

Experiments:
[1] = molecular target: 329 SOSIP.v8.2 Env trimer (HIV-1 clade C (isolate 329.14.B1)); assay: negative-stain electron microscopy
[2] = molecular target: 329 SOSIP.v8.2 Env trimer (HIV-1 clade C (isolate 329.14.B1)); assay: native gel or EMSA

**Q.** Which stoichiometry N [1] does the source give for 329 SOSIP.v8.2 Env trimer (complex) here?
**A.** 3

**Q.** What about the stoichiometry N [2] of the same substance?
**A.** 3
